Test: soluble on expression in E. coli; label from the status in PepcDB or PDB records

| Sequence | soluble on expression in E. coli |
| --- | --- |
| MSLSWLGNDDRRKKDPEVFQTVSDGLKKLYKTKLLPLEEYYRFHEFHSPALEDADFDNKPMVLLVGQYSTGKTTFIRYLLEQDFPGMRIGPEPTTDSFIAVMQGDVEGIIPGNALVVDPKKPFRKLNAFGNAFLNRFVCAQLPNAVLESISVIDTPGILSGEKQRISRGYDFAAVLEWFAERVDRIILLFDAHKLDISDEFSEVIKALKNHEDKMRVVLNKADQIETQQLMRVYGALMWSLGKIVNTPEVIRVYIGSFWSHPLLIPDNRKLFEAEEQDLFRDIQSLPRNAALRKLNDLIKRARLAKVHAYIISSLKKEMPSVFGKDTKKKELVNNLAEIYGRIEREHQISPGDFPNLKKMQDQLQAQDFSKFQPLKSKLLEVVDDMLAHDIAQLMVLVRQEETQRPVQMVKGGAFEGTLQGPFGHGYGEGAGEGIDDAEWVVARDKPMYDEIFYTLSPVDGKITGANAKKEMVRSKLPNSVLGKIWKLADIDKDGMLDDEEFALANHLIKVKLEGHELPSELPAHLLPPYKRKVSEGHHHHHH | soluble |
| MSLSYLTEEKLTIVGAAGMIGSNMAQTAAMMRLTPNLCLYDPFAVGLEGVAEEIRHCGFEGLNLTFTSDIKEALTDAKYIVSSGGAPRKEGMTREDLLKGNAEIAAQLGKDIKSYCPDCKHVIIIFNPADITGLVTLIYSGLKPSQVTTLAGLDSTRLQSELAKHFGIKQSLVTNTRTYGGHGEQMAVFASTAKVNGTPLTDLIGTDKLTNEQWAELKQRVVKGGANIIKLRGRSSFQSPSYVSIEMIRAAMGGEAFRWPAGCYVNVPGFEHIMMAMETTITKDGVKHSDINQLGNEAERAALKESYSHLAKLRDEVIAMGIIPAIADWKTVNPNEGHHHHHH | soluble |
| MSLSYPWPDAGTALNAISTPMPVIDEDRLAANILRAQSYLDAHGKTFRPHIKTHKIPAIAKQQLQAGAIGINCQKVSEAEVFADAGFEDILITYNILGAAKLSRLKALNARIGRLSVVADSAVTIAGLADTFDAARPLAVLVECDTGGKRCGVQTPEAALALAEQIVSASGLIFRGILTYPAPGGAEMVEKFIRETMALLATKGIDCPVRSSGGSPDFYSAHLVASATEHRAGTYIYNDRSMLRAGHCSAGDLAMHVLATVVSKPTADRAVLDSGSKALTSDLLGFNDYGLLEGYEGAKIISLSEEHAVVDLSGCTGARPEIGDVVQVVPNHTCVVSNLFDRMVFHRNGVVTRVEQVAARGTVWEGHHHHHH | soluble |
| MSLTASVAAAPDPASLAPELAHIAPALKAEILAQALPYIRKFHGKTIVIKYGGNAMTEEKLKHGFARDVILLKLVGMNPVVVHGGGPQIDDALKKVGKTGTFIQGMRVTDEETMEVVEWVLGGEVQQDIVMLINQYGGQAVGLTGKDGGLIRAKKLQMPDREKPGQFIDIGFVGDIETINPAVVRALQDDAFIPVISPIGFSDDGQAYNINADVVAGKMAEILKAEKLVMMTNIPGVLDKQGNLLTDLSAREIDELFADGTISGGMLPKISSALDAAKSGVHSVHIIDGRIEHSLLLEILTEQAFGTMIRSHEGHHHHHH | soluble |
| MSLTAYKRVLLKLSGESLMGAQQYGIDPNRLADYASDIKEACAMGVQIGIVIGGGNIFRGVSGAAKGFDRVKGDQMGMLATVINSLALSSALEGVGVKTKVLTAVRMEPIGEFYNKWHAIELLEQGYVTIFSCGTGNPFFTTDTGSSLRGIEIEADAMLKGTRVDGIYTADPEKDPSATKFDRITYDEIYARGLKVMDLTATAMCMENNLPIVVFDMDTPGNLLKVLRGEKIGTYVSNTSAEGHHHHHH | soluble |
| MSLTAYMDHKNLANEVIDDARAREITDGVHRVLDRIAAAEEQAGREAGSVRLLAATKTRDIGEIMAAIDAGVRMIGENRPQEVTAKAEGLARRCAERGFSLGVAGAAPDAAAEHIPFHLIGQLQSNKIGKVLPVVDTIESVDSIDLAEKISRRAVARGITVGVLLEVNESGEESKSGCDPAHAIRIAQKIGTLDGIELQGLMTIGAHVHDETVIRRGFSHLRKTRDLILASGEPGTDRCRELSMGMTGDMELAIAEGSTIVRVGTAIFGERAFIEGHHHHHH | soluble |
| MSLTDAPDLILHRGLFTTLDRSNPIASAVAISGGRFSAVGHDREVLPLAGPSTKVIDLKGRRVLPGLIDNHLHIIRGGLNFNMELRWDGVRSLADAMNMLKRQVAITPPPQWVRVVGGFTEHQFAEKRLPTIEELNAVAPDTPVFLLHLYDRAILNGAALRAVGYTRDTPEPPGGEITRDANGNPTGLLLAKPNANILYATLAKGPKLPFDYQVNSTRHFMRELNRLGVTGAIDAGGGFQNYPDDYAVIQKLDEEGLLTIRLAYNLFTQKPKGEKDDFLNWTKTSKYKQGNDYFRHNGAGEMLVFSAADFEDFRVPRPDMPPEMEGELEEVVRILVQNKWPWRLHATYDETISRALDVFEKVNQDTPLDGLHWFFDHAETISDRSIDRIAALGGGIAVQHRMAYQGEYFVERYGFGAAEATPPVRRILDSGVKVSAGTDATRVASYNPWVSLSWLVTGRTVGGLRITPQRNCLDRETALRMWTENVTWFSNEEGNKGRVAVGQLADVVVPDRDYFSCSEAEIADTTSLLTMVGGKVVYGAGEFAGLDDSEGHHHHHH | not soluble |
| MSLTDHGFSFCAHAEQYAIIGSLSQLETSDNRDCDIRRPALNRCMAEKGTLRPEAAQIFQRLEALGLKQRELAQALGIEENKISKVRAGERQFKGAELLAAYEWLDQREAEAHMPRLSRVAAVGQQVIPATPVEGEVVQIQKLDLSLSMGPGTLIDGYVESELVSFDLGFVRLFTRAASDHLRLVTGIGDSMEPTLKWGDLILIDTTDRMLSKQDGIYWINLYGAAGIKRLRAIGPRTILVKSDNPGVDDQEVEAEDLRIEGRAIWATRGLEGHHHHHH | soluble |
| MSLTDNLQDLISTKLAAAIANPLFPAVDSQLRAGRHISLDQLDNHAFLMDFQGELDSFYRRYNVELIRAPEGFFYLRPKATTLIARSVLTELEMLVGKVLCYLYLSPERLAQQGIFSTQEVYDELLNLADENKLLKAVNQRSSGSDLDKQKLAEKVRAALNRLRRLGMIHGVGEQNSGKFTIAEAVFRFGAEVRAGDDPREAQLRPIRDGRPATPGFWAAGKTRSATGGEHRDEGGDEGGDEERAEGHHHHHH | soluble |
| MSLTDNQDPLQLVQEFRSIAGEAALVCAEETEDQRDRTQFVNFELEAKLWYLVELLVSFRTSDAPMDDIELHDYNSNAVFKKAQLQEDPELYVVWLIIAWIQENLTVSPRPAELPTTKWSNTLLAGGLKSSDLDCPLREEGVQIHPKDNQDDHCFYKYMYELILAGKYEEVRRECEYSDNLTLGMIMCGLEDYVDPRIDLELAGDYEGHQGIKKRALWRRAVYALSRNPNLDKYEAAIYAFLSGTIPQDIDEQQLDWERMLLVYLNQIWNIKIENYLLEKERINKEELIEQMPSQPLSLSAVLNIVASKHVEESEHPIRVLMGAVILNTISPAVKSFIDMLLDAVKGVDQENDLLSEPYILRILTHLVIFLDKACPGVIEEGDKSKLVTTYVSLLNLYEQYDLVPVYISCLDEQDIMEAYSFFLSNLVGDSSRERQLELCYFFQLPTANILKRTAQRIFNDTEPHYNLADTVTMNSEVTDIDLHLISAVDWLMKGRLHVDAVESIIALCRRFLANGKVNSLSTFFEQHNMDDLIKNYELDQLSAKEEYPEDRFVQEIGQYTKLITGFRQYKNWENSSHTVSSSKNTSALLQQFQAFASTLRGLVTEFLVELTEHTDMPSEDRDMLYNIRSLYTPYLLIELHNSYTSTAEKLGVPSFLQEAVNLSTMVANETDKIYLLFQNSGKLKEYLHLVAKAVALIGHEGHHHHHH | not soluble |
| MSLTDPVKIYQRKWIVGGWMKRSEIRKALEAWFDVERYEAIETLTLQQFYVEVERRILAYRMLLSRNTIPTFNRLMLDDYRNKILSGEIFFSGDTATIGHELARTYAVNPTTRSHAQFYAKTLSLTEATPELSGLSQSEFLSEYLKETSLNNLSRITVDIHLEEASTEEIIEHLKVLIPQWKRQLKMTSPAPREYRFGKSTFRKIIDYRLIPMMDLIFWGEDNGIKIPLSLISSLLHEDSDNDRDEGMLKATDYPLAMAFLTDASYLKSLEDYMMENNHLKDSPVEKHVEDDRNEGHHHHHH | not soluble |
| MSLTELTGNPRHDQLLMLIAERGYMNIDELANLLDVSTQTVRRDIRKLSEQGLITRHHGGAGRASSVVNTAFEQREVSQTEKKKAIAEAVADYIPDGSTIFITIGTTVEHVARALLNHNHLRIITNSLRVAHILYHNPRFEVMVPGGTLRSHNSGIIGPSAASFVADFRADYLVTSVGAIESDGALMEFDVNEANVVKTMMAHARNILLVADHTKYHASAAVEIGNVAQVTALFTDELPPAALKSRLQDSQIEIILPQEDALEHHHHHH | soluble |
| MSLTELYIHNGRDVSGAPVAVLITDGVIAEVGTELTVPVGCPTLDAQGCYITAGWIDDHTHCNAHAALYYDDADAIGYRTGVTTVIDAGSTGADNVADLYQQAHRAATNVYALLNIARTGIVAQDELADLNQLSFSALRTAIKRYPDFIVGLKVRVSKSVVGDNGVEPLRVAKQYQADLTVQLPLMVHIGSNPPELAAIIALMRPGDVLTHCFNGKPNGIVNSTGEVAQYVRKAYQKGLIFDVGHGTDSFSFRTAALARTAHLFPQTLSSDIYYRNRLNGPVYSLAVCVEKLLLLGYRLEEIIPMITTNPARIFKLTHKGQLCRGYDADLTIFQTVTAPQIVVDSTGEERIAPTQVIPTYSVIAGRVYTCGVDKEGHHHHHH | soluble |
| MSLTEPEDPSRERLKHHFAQRVIHQARQILEIWQRLQRSEWSTTDMSELCEANLRLLRFAERFEQPEHTQLARSISQSLEAVDANRGRLSSNLITDLNRLMQRLSRTGLRHGDQLEQTFLPPLRKPIYVMLQDHDRAERLAKQLEFFGLSAQSLDSIPAFRSSMVERLPAAIVIDVDFCGAGMGLTLAAEAQVGLEQKLPLLFFSLHETDTPTRLAAVRAGGQEFLTGTLEASSLLEKIEVLTCVAQYEPYKVLIIDDSRAQALHTERLLNSAGIVTRTLIEPIQAMAELADFQPDLIILDMYMPACTGTELAKVIRHNDRYVSVPIIYLSAEDDLDKQLDAMSEGGDDFLTKPIKPRHLITTVRNRAARARNLKARMVRDSLTGLYNHTHILQLLEDCSFRARREGKPLSFAMLDIDHFKRVNDSHGHPMGDRVIKSLALFLKQRLRKTDFIGRYGGEEFAIVMPDTDQDAACKVLDEIRQRFAEIHYPAQPQDLWCTFSAGVVEMQEDSDSLIMASQADEALYRAKHGGRNRVQAARSSQSAIFSSESTDSVITLEGHHHHHH | soluble |
| MSLTEQRAVIAIYLRLSRESDDSTSLETQRSFAHRWLLAHGYDPADAVEYIDASVSGAKPLEARKGMAALMAARPTVVVAWKLDRFARSVSDFLRLVAWAEAHGASIATTDNAIDTTTATGRMVATVLAALAEWERNAIASRITDGHATRRSQGRWSSGRPPFGYRIERRDGAAYLAIDDDQAAKIRKAVAALVNGSTVAATARLTGLSEPQWRRLLKSPTLRGQRAHKGELVCEVDGITPVKFAEPILSAAELLKVRERMLALATGQDRAPRRATPMCSGMAFCHRCAGKLNGGTSDKGVPLYRCKAGHVTIYAETLDSRVESEFLTTFGSYAETVIRLEGGNDLSAELLEAKEQAERLAARMATAGPLMLGTLESLAQDLEDTHARLRAAHDPDVREVQVATGRTMAQAWEMYDVPDRSRLLAGMGLRVSLHPRQLADRLTITWGPTPEEAPEAEWDGLALSEAEGHHHHHH | not soluble |
| MSLTESGSCSTARQAKQKRKSHSLSIRRTNSSEQERTGLPREMLEGQDSKLPSSVRSTLLELFGQIEREFENLYIENLELRREIDTLNERLAGEGQAIDGAELSKGQLKTKASHSTSQLSQKLKTTYKASTSKIVSSFKTTTSRAICQLVKEYIGHRDGIWDVSVTRTQPIVLGTASADHTAMLWSIETGKCLVKYAGHVGSVNSIKFHPSEQLALTASGDQTAHIWRYVVQLPTPQPVADTSQQISGEDEIECSDKDEPDIDGDVSSDCPTVRVPLTSLKSHQGVVIAADWLVGGKQVVTASWDRTANMYDVETSELVHSLTGHDQELTHCCTHPTQRLVVTSSRDTTFRLWDFRDPSIHSVNVFQGHTDTVTSAVFTVGDNVVSGSDDRTVKVWDLKNMRSPIATIRTDSAINRINVCVGQKIIALPHDNRQVRLFDMSGVRLARLPRSSRQGHRRMVCCSAWSEDHPICNLFTCGFDRQAIGWNINIPALLQEKEGHHHHHH | not soluble |

— the DeepSol protein solubility set
